This note sets out measurements from the supplement of paper PMC10567573.

B1: TCEB3B (parent)
chain: STTALGDKQRKANESKGTRESWDS
B2: PTPRD (parent)
chain: ITWFKDFLPVDTSNNNGRIKQLRS
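Further: lentivirally expressed fusions sorted by FACS into six bins by GFP to DsRed ratio, PSI derived from sequencing read proportions per bin multiplied by bin number.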

Variants of B1 are the subject of the first series. Briefly: protein stability index of a GFP-peptide fusion (GPS, HEK-293T) (PSI 1-6); higher = more stable. The following applies: c terminus: a fixed tail appended.
For the variant HTTALGDKQRKANESKGTRESWDS [S1H], the protein stability index turned out to be 3.64.

For STTALGAKQRKANESKGTRESWDS [D7A], the protein stability index amounted to 3.49.

As for STTALGHKQRKANESKGTRESWDS [D7H], the protein stability index was found to be 3.58.

As for STTALGWKQRKANESKGTRESWDS [D7W], the protein stability index is 3.39.

Regarding STTALGQKQRKANESKGTRESWDS [D7Q], the protein stability index stood at 3.15.

On to STTALGNKQRKANESKGTRESWDS [D7N], for which the protein stability index was 3.43.

As to STTALGCKQRKANESKGTRESWDS [D7C], the protein stability index is 3.57.

On to STTALGYKQRKANESKGTRESWDS [D7Y], for which the protein stability index is 3.

As for STTALGGKQRKANESKGTRESWDS [D7G], the protein stability index is 3.83.

For the variant STTALGVKQRKANESKGTRESWDS [D7V], the protein stability index was found to be 3.6.

As to STTALGLKQRKANESKGTRESWDS [D7L], the protein stability index worked out at 2.88.

As to STTALGKKQRKANESKGTRESWDS [D7K], the protein stability index amounted to 4.05.

Consider STTALGTKQRKANESKGTRESWDS [D7T], for which the protein stability index came out at 3.52.

As to STTALGPKQRKANESKGTRESWDS [D7P], the protein stability index came out at 3.5.

For the variant STTALGIKQRKANESKGTRESWDS [D7I], the protein stability index is 3.23.

For the variant STTALGRKQRKANESKGTRESWDS [D7R], the protein stability index came to 3.88.

As to STTALGEKQRKANESKGTRESWDS [D7E], the protein stability index was found to be 4.36.

As for STTALGSKQRKANESKGTRESWDS [D7S], the protein stability index was 3.43.

Consider STTALGFKQRKANESKGTRESWDS [D7F], for which the protein stability index was 3.24.

For STTALGMKQRKANESKGTRESWDS [D7M], the protein stability index was determined as 3.2.

On to STTALGDDQRKANESKGTRESWDS [K8D], for which the protein stability index was determined as 4.59.

Regarding STTALGDWQRKANESKGTRESWDS [K8W], the protein stability index was 4.51.

In the case of STTALGDTQRKANESKGTRESWDS [K8T], the protein stability index amounted to 3.46.

On to STTALGDPQRKANESKGTRESWDS [K8P], for which the protein stability index is 3.96.

Consider STTALGDYQRKANESKGTRESWDS [K8Y], for which the protein stability index was found to be 3.11.

For the variant STTALGDMQRKANESKGTRESWDS [K8M], the protein stability index is 4.12.

Regarding STTALGDSQRKANESKGTRESWDS [K8S], the protein stability index was determined as 4.31.

For STTALGDHQRKANESKGTRESWDS [K8H], the protein stability index stood at 3.86.

On to STTALGDEQRKANESKGTRESWDS [K8E], for which the protein stability index was 4.1.

For STTALGDIQRKANESKGTRESWDS [K8I], the protein stability index was found to be 3.98.

In the case of STTALGDNQRKANESKGTRESWDS [K8N], the protein stability index is 4.15.

For STTALGDFQRKANESKGTRESWDS [K8F], the protein stability index stood at 3.88.

As for STTALGDAQRKANESKGTRESWDS [K8A], the protein stability index worked out at 3.83.

With STTALGDCQRKANESKGTRESWDS [K8C], the protein stability index was found to be 4.12.

Consider STTALGDQQRKANESKGTRESWDS [K8Q], for which the protein stability index worked out at 4.16.

On to STTALGDRQRKANESKGTRESWDS [K8R], for which the protein stability index amounted to 4.08.

As to STTALGDGQRKANESKGTRESWDS [K8G], the protein stability index worked out at 4.29.

With STTALGDVQRKANESKGTRESWDS [K8V], the protein stability index is 4.17.

Take STTALGDLQRKANESKGTRESWDS [K8L]: the protein stability index is 4.8.

Take STTKLGDKQRKANESKGTRESWDS [A4K]: the protein stability index was determined as 3.78.

STTNLGDKQRKANESKGTRESWDS [A4N]: the protein stability index was 4.18.

Consider STTTLGDKQRKANESKGTRESWDS [A4T], for which the protein stability index stood at 4.46.

STTELGDKQRKANESKGTRESWDS [A4E]: the protein stability index worked out at 4.14.

STTMLGDKQRKANESKGTRESWDS [A4M]: the protein stability index came out at 3.54.

For STTILGDKQRKANESKGTRESWDS [A4I], the protein stability index was 3.65.

With STTSLGDKQRKANESKGTRESWDS [A4S], the protein stability index was 3.81.

STTYLGDKQRKANESKGTRESWDS [A4Y]: the protein stability index is 3.36.

On to STTGLGDKQRKANESKGTRESWDS [A4G], for which the protein stability index was 3.75.

Turning to STTHLGDKQRKANESKGTRESWDS [A4H], the protein stability index is 3.82.

As to STTPLGDKQRKANESKGTRESWDS [A4P], the protein stability index was 3.88.

Consider STTRLGDKQRKANESKGTRESWDS [A4R], for which the protein stability index is 3.34.

STTCLGDKQRKANESKGTRESWDS [A4C]: the protein stability index was determined as 3.86.

With STTWLGDKQRKANESKGTRESWDS [A4W], the protein stability index was 3.62.

Take STTFLGDKQRKANESKGTRESWDS [A4F]: the protein stability index turned out to be 3.56.

STTQLGDKQRKANESKGTRESWDS [A4Q]: the protein stability index amounted to 3.9.

For the variant STTLLGDKQRKANESKGTRESWDS [A4L], the protein stability index was determined as 3.49.

Take STTDLGDKQRKANESKGTRESWDS [A4D]: the protein stability index came to 4.14.

On to STTVLGDKQRKANESKGTRESWDS [A4V], for which the protein stability index worked out at 3.96.

Turning to STTALGDKQQKANESKGTRESWDS [R10Q], the protein stability index came to 4.56.

Consider STTALGDKQAKANESKGTRESWDS [R10A], for which the protein stability index was found to be 4.13.

As to STTALGDKQKKANESKGTRESWDS [R10K], the protein stability index worked out at 4.25.

STTALGDKQPKANESKGTRESWDS [R10P]: the protein stability index is 4.43.

With STTALGDKQNKANESKGTRESWDS [R10N], the protein stability index was found to be 4.14.

For the variant STTALGDKQDKANESKGTRESWDS [R10D], the protein stability index is 4.76.

On to STTALGDKQHKANESKGTRESWDS [R10H], for which the protein stability index was determined as 4.24.

Regarding STTALGDKQIKANESKGTRESWDS [R10I], the protein stability index came to 3.6.

With STTALGDKQGKANESKGTRESWDS [R10G], the protein stability index was determined as 4.55.

With STTALGDKQFKANESKGTRESWDS [R10F], the protein stability index amounted to 4.15.

Regarding STTALGDKQLKANESKGTRESWDS [R10L], the protein stability index came out at 4.28.

In the case of STTALGDKQMKANESKGTRESWDS [R10M], the protein stability index amounted to 4.03.

With STTALGDKQCKANESKGTRESWDS [R10C], the protein stability index stood at 3.53.

As to STTALGDKQSKANESKGTRESWDS [R10S], the protein stability index is 4.26.

Regarding STTALGDKQTKANESKGTRESWDS [R10T], the protein stability index came out at 4.33.

Turning to STTALGDKQEKANESKGTRESWDS [R10E], the protein stability index stood at 4.57.

On to STTAAGDKQRKANESKGTRESWDS [L5A], for which the protein stability index was determined as 4.37.

As for STTASGDKQRKANESKGTRESWDS [L5S], the protein stability index is 4.25.

With STTAKGDKQRKANESKGTRESWDS [L5K], the protein stability index is 4.37.

As to STTAYGDKQRKANESKGTRESWDS [L5Y], the protein stability index is 3.37.

For the variant STTAHGDKQRKANESKGTRESWDS [L5H], the protein stability index stood at 4.25.

As for STTACGDKQRKANESKGTRESWDS [L5C], the protein stability index was 3.44.

For STTANGDKQRKANESKGTRESWDS [L5N], the protein stability index is 4.14.

As to STTAFGDKQRKANESKGTRESWDS [L5F], the protein stability index came to 3.29.

For STTAQGDKQRKANESKGTRESWDS [L5Q], the protein stability index was determined as 4.57.

With STTAWGDKQRKANESKGTRESWDS [L5W], the protein stability index came out at 3.64.

For STTAIGDKQRKANESKGTRESWDS [L5I], the protein stability index was determined as 3.17.

On to STTADGDKQRKANESKGTRESWDS [L5D], for which the protein stability index was found to be 4.22.

As to STTAVGDKQRKANESKGTRESWDS [L5V], the protein stability index worked out at 4.08.

Consider STTAMGDKQRKANESKGTRESWDS [L5M], for which the protein stability index was 3.88.

Consider STTAGGDKQRKANESKGTRESWDS [L5G], for which the protein stability index was 4.11.

With STTAEGDKQRKANESKGTRESWDS [L5E], the protein stability index was found to be 4.57.

As to STTARGDKQRKANESKGTRESWDS [L5R], the protein stability index amounted to 4.03.

Take STTAPGDKQRKANESKGTRESWDS [L5P]: the protein stability index amounted to 4.37.

For the variant STTATGDKQRKANESKGTRESWDS [L5T], the protein stability index came out at 4.63.

In another series the parent is B2. The description is as above. The following applies: c terminus: a fixed tail appended.
Take ITWSKDFLPVDTSNNNGRIKQLRS [F4S]: the protein stability index worked out at 1.57.
